The values that follow come from patent US20130280162A1.

In this assay the target is human uPAR on 293/uPAR cells (human) (UniProt Q03405). The experiment in a line: cell-based or functional assay.
Chain of human uPAR on 293/uPAR cells (human) (Q03405 23-305): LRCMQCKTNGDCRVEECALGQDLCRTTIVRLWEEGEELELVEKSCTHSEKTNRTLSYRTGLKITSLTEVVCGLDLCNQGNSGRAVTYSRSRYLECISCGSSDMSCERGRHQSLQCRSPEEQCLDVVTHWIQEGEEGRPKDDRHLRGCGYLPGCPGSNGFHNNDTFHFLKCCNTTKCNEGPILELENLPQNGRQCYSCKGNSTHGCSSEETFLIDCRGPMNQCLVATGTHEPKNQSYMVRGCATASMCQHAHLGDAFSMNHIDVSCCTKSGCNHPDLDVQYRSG

Chain of uPAR-lockV2 (SMB-GFD/hFc, disulphide-linked homodimer) (Fc fusion) (chain): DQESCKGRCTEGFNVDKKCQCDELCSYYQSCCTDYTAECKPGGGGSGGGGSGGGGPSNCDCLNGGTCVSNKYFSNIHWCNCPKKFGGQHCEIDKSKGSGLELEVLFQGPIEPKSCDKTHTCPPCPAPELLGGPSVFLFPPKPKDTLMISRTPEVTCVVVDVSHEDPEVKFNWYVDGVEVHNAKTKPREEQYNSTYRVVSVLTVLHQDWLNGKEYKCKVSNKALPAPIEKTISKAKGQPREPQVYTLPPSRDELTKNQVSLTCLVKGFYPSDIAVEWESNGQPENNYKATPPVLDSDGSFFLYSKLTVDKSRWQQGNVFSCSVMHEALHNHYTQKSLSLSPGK

Take “uPAR-lockV2 (SMB-GFD/hFc, disulphide-linked homodimer) (Fc fusion)”: the IC50, inhibition of 293/uPAR cell adhesion to VN(1-66)/Fc^RAD (RTCA impedance) is 0.59 nM.
